From patent publication US20220227830A1, “QD DOSING OF GIP RECEPTOR AGONIST PEPTIDE COMPOUNDS AND USES THEREOF” (Takeda Pharmaceutical Company Limited, priority 2020, published 2022)
Starred links: 1 amine or outer side, 2 acyl side, 3 side chain; linkers in the order of their positions; H or OH if unused. Non-standard residues stand in square brackets, D forms with d. Groups on a side chain read outwards from the residue. No end group written: not given here. *: point of attachment. C16 diacid = O=C(O)CCCCCCCCCCCCCCC(=O)*; C15 diacid = O=C(O)CCCCCCCCCCCCCC(=O)*; γGlu = O=C(O)[C@H](CCC(=O)[*:2])N[*:1]; NMeY = CN[C@@H](Cc1ccc(O)cc1)C(=O)O; AEEA = NCCOCCOCC(=O)O; Aib = CC(C)(N)C(=O)O

Key:
[1] = biological target: dog plasma proteins; assay: plasma protein binding, ultracentrifugation of spiked plasma, LC-MS/MS
[2] = biological target: human plasma proteins; assay: as above
[3] = biological target: human plasma proteins; assay: plasma protein binding; spiked human plasma, ultracentrifugation, LC-MS/MS

Binder	Dog PPB (Fu,plasma), fraction unbound (fraction unbound) [1]	Human PPB (Fu,plasma), fraction unbound (fraction unbound) [2]	percent of unbound drug in plasma [3]	proportion of the drug being bound [3]
[NMeY][Aib]EGTFISDYSI[Aib]LDRK([AEEA-AEEA-γGlu-γGlu-C15 diacid])AQ[Aib]NFVNWLLAQRPSSGAPPPS-NH2 (not fully specified (N-terminus)) [Compound 20]	0.0021	0.0013	0.1%	–
[NMeY][Aib]EGTFISDYSI[Aib]LDR[Aib]AQ[Aib]NFVNWLLAQK([AEEA-AEEA-γGlu-γGlu-C15 diacid])PSSGAPPPS-NH2 (N-terminus assumed; SMILES CC[C@H](C)[C@H](NC(=O)[C@H](Cc1ccccc1)NC(=O)[C@@H](NC(=O)CNC(=O)[C@H](CCC(=O)O)NC(=O)C(C)(C)NC(=O)[C@H](Cc1ccc(O)cc1)NC)[C@@H](C)O)C(=O)N[C@@H](CO)C(=O)N[C@@H](CC(=O)O)C(=O)N[C@@H](Cc1ccc(O)cc1)C(=O)N[C@@H](CO)C(=O)N[C@H](C(=O)NC(C)(C)C(=O)N[C@@H](CC(C)C)C(=O)N[C@@H](CC(=O)O)C(=O)N[C@@H](CCCNC(=N)N)C(=O)NC(C)(C)C(=O)N[C@@H](C)C(=O)N[C@@H](CCC(N)=O)C(=O)NC(C)(C)C(=O)N[C@@H](CC(N)=O)C(=O)N[C@@H](Cc1ccccc1)C(=O)N[C@H](C(=O)N[C@@H](CC(N)=O)C(=O)N[C@@H](Cc1c[nH]c2ccccc12)C(=O)N[C@@H](CC(C)C)C(=O)N[C@@H](CC(C)C)C(=O)N[C@@H](C)C(=O)N[C@@H](CCC(N)=O)C(=O)N[C@@H](CCCCNC(=O)COCCOCCNC(=O)COCCOCCNC(=O)CC[C@H](NC(=O)CC[C@H](NC(=O)CCCCCCCCCCCCCC(=O)O)C(=O)O)C(=O)O)C(=O)N1CCC[C@H]1C(=O)N[C@@H](CO)C(=O)N[C@@H](CO)C(=O)NCC(=O)N[C@@H](C)C(=O)N1CCC[C@H]1C(=O)N1CCC[C@H]1C(=O)N1CCC[C@H]1C(=O)N[C@@H](CO)C(N)=O)C(C)C)[C@@H](C)CC) [Compound 21]	0.037	0.0414	–	–
[NMeY][Aib]EGTFISDYSIAK([AEEA-AEEA-γGlu-γGlu-C15 diacid])DR[Aib]AQ[Aib]NFVNWLLAQS [Compound 16]	0.0151	0.0441	–	–
[NMeY][Aib]EGTFISDYSIAK([AEEA-γGlu-γGlu-γGlu-C15 diacid])DR[Aib]AQ[Aib]NFVNWLLAQK-NH2 (N-terminus assumed; SMILES CC[C@H](C)[C@H](NC(=O)[C@H](CO)NC(=O)[C@H](Cc1ccc(O)cc1)NC(=O)[C@H](CC(=O)O)NC(=O)[C@H](CO)NC(=O)[C@@H](NC(=O)[C@H](Cc1ccccc1)NC(=O)[C@@H](NC(=O)CNC(=O)[C@H](CCC(=O)O)NC(=O)C(C)(C)NC(=O)[C@H](Cc1ccc(O)cc1)NC)[C@@H](C)O)[C@@H](C)CC)C(=O)N[C@@H](C)C(=O)N[C@@H](CCCCNC(=O)COCCOCCNC(=O)CC[C@H](NC(=O)CC[C@H](NC(=O)CC[C@H](NC(=O)CCCCCCCCCCCCCC(=O)O)C(=O)O)C(=O)O)C(=O)O)C(=O)N[C@@H](CC(=O)O)C(=O)N[C@@H](CCCNC(=N)N)C(=O)NC(C)(C)C(=O)N[C@@H](C)C(=O)N[C@@H](CCC(N)=O)C(=O)NC(C)(C)C(=O)N[C@@H](CC(N)=O)C(=O)N[C@@H](Cc1ccccc1)C(=O)N[C@H](C(=O)N[C@@H](CC(N)=O)C(=O)N[C@@H](Cc1c[nH]c2ccccc12)C(=O)N[C@@H](CC(C)C)C(=O)N[C@@H](CC(C)C)C(=O)N[C@@H](C)C(=O)N[C@@H](CCC(N)=O)C(=O)N[C@@H](CCCCN)C(N)=O)C(C)C) [Compound 23]	–	0.0734	7.3%	92.7%
[NMeY][Aib]EGTFISDYSIALDR[Aib]K([AEEA-AEEA-γGlu-γGlu-C16 diacid])Q[Aib]NFVNWLLAQSPSSGAPPPS-NH2 [Compound 119]	0.0105	0.0185	–	–
